Experimental data as given in US7906477B2 (Genspera, Inc., priority 2002, dated 2011).
Square brackets hold non-standard residues; d marks the D form. Ends that are not written are not given here. Peptide text beside a SMILES is read from it. Tyr(3-NO2) = N[C@@H](Cc1ccc(O)c([N+](=O)[O-])c1)C(=O)O; 2Abz = Nc1ccccc1C(=O)O

Columns and labels:
Cathepsin B = Cathepsin B (Homo sapiens, UniProt P07858); test: hydrolysis by tumor-associated proteases: Cathepsin B; assay type: biochemical
Source text: (§1) Due to their short length, the hK2 peptide substrates could potentially be substrates for other trypsin-like proteases. Although a rather specific protease substrate can be defined with 7 amino acids, there is a lack of higher order structural information by which natural protein substrates normally impose high specificity. Cancer progression is often correlated with increased protease activity (Koblinsli, J. E. et al. (2000) Clin. Chim. Acta 291:113-135). These activities could be potentially beneficial since they could broaden the scope of applications for protease activated prodrugs. To test the hypothesis that other tumor-associated proteases could activate the prodrug, a number of known proteases (table 3), implicated in cancer progression were selected to determine if our lead substrate, GKAFRRL (SEQ ID NO:30) could be efficiently hydrolyzed by any of these proteases. For this analysis, the trypsin-like serine proteases plasmin and urokinase and cathepsins B and D were selected. Hydrolysis of both the fluorescence quenched peptide substrate and the TG-prodrug was analyzed. […] Plasmin, therefore, could be a valid target for selective activation of the GKAFRR-L12ADT (SEQ ID NO:44) prodrug in other types of cancer where plasmin activation may play an important role.

hK2 [1] = molecular target: T1, hK2 (Homo sapiens, UniProt P20151); test: hydrolysis in the protease panel: hK2; assay type: biochemical; conditions: enzyme 1 μg/ml, substrate 500 μM; 1 = approximately 0.1% digestion in 1 hour
T1 construct: made in house
T1 sequence (P20151 25-261): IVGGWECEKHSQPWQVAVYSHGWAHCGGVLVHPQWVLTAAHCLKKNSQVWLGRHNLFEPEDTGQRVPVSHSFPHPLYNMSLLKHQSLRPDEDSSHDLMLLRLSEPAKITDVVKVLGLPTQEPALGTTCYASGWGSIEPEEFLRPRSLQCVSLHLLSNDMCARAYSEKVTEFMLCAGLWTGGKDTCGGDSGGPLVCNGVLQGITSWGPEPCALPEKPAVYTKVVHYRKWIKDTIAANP
Source text: as §1

Urokinase = Urokinase (Homo sapiens, UniProt P00749); test: hydrolysis by tumor-associated proteases: Urokinase; assay type: biochemical
Source text: as §1

Plasmin = Plasmin (Homo sapiens, UniProt P00747); test: hydrolysis by tumor-associated proteases: Plasmin; assay type: biochemical
Sequence of Plasmin (P00747 581-810 limits assumed, species assumed): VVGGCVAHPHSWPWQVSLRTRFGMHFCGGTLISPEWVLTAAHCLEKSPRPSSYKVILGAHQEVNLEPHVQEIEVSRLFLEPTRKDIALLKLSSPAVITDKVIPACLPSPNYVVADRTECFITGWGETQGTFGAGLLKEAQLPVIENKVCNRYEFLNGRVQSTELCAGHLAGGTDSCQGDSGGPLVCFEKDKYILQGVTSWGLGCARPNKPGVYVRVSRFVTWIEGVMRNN
Sequence of Plasmin (P00747 97-580 partner limits assumed, species assumed): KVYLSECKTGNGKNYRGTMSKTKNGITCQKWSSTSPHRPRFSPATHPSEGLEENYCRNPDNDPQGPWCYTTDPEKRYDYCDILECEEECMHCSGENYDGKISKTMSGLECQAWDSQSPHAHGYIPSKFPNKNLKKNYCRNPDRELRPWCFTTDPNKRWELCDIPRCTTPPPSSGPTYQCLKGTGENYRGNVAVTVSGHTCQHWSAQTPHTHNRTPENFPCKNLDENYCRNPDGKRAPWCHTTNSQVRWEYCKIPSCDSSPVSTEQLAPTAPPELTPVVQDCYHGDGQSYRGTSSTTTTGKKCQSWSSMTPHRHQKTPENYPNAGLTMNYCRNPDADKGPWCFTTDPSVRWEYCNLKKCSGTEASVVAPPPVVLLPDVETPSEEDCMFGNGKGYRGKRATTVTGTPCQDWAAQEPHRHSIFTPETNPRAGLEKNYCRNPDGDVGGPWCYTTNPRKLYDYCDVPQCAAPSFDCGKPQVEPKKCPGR
Source text: as §1

Cathepsin D = Cathepsin D (Homo sapiens, UniProt P07339); test: hydrolysis by tumor-associated proteases: Cathepsin D; assay type: biochemical
Sequence of Cathepsin D (P07339 65-412, species assumed): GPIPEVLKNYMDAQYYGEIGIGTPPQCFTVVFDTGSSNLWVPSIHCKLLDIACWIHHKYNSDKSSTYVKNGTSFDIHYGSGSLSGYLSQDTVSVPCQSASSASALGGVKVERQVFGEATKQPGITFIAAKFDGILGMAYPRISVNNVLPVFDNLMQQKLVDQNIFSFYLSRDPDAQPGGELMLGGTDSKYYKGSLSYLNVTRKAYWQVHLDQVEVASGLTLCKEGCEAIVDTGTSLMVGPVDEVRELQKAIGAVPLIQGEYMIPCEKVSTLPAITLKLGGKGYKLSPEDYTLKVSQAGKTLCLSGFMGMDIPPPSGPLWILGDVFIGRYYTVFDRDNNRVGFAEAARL
Source text: as §1

hK2 [2] = molecular target: T1, hK2; test: hK2 hydrolysis of prodrug and non-fluorescent peptide by HPLC; assay type: biochemical; conditions: HPLC analysis
Protocol: FIG. 4 depicts HPLC analysis of the hydrolysis of the hK2 prodrug Ac-GKAFRR-L12ADT (SEQ ID NO:41) by hK2 ([…]) incubated in 50 mM Tris, 0.1 M NaCl, pH 7.8 at room temperature for 24 hours. The mass of each peak was confirmed by MALDI-TOF mass spectrometric analysis.
Fluorescent substrates were analyzed by means of a fluorescence plate-reader (ex=355 nm, em=460 nm). acGKAFRRL-12ADT (SEQ ID NO:41) and acGKAFRRLG (SEQ ID NO:43) were analyzed by HPLC and quantified by HLPC integration.
This putative hK2 prodrug was incubated with enzymatically active hK2 (4 μg/ml) to determine extent of hydrolysis over time. […] In 25 min, 50% was hydrolyzed and after 1 hour, more than 80% of the starting prodrug was hydrolyzed. The ratio of the products RL-12ADT:L-12ADT was 1:1.8, as determined by HPLC integration.

[3] = plasma stability of acetylated versus non-acetylated peptide (plasma species not stated); assay type: in vitro ADME; conditions: plate-reader assay and analytical HPLC
Protocol: Mouse plasma was obtained from cardiac puncture of anesthetized mice prior to euthanization by CO2 overdose according to protocols approved by the Johns Hopkins Animal Care and Use Committee. Human plasma was obtained from discarded, pooled, and unlabeled clinical samples. Plasma was diluted to 50% in Tris buffer (50 mM Tris-HCl, 100 mM NaCl, pH 7.8). To this, test peptides/prodrugs were added to 250 or 500 μM final concentration. After the incubation period, one volume (200 μl) of acetonitrile was added to precipitate the protein fraction and the tube was centrifuged at 14,000 for 2 min. The supernatant was analyzed by C18-HPLC and the collected peaks were analyzed by MALDI-TOF as described above.
To determine whether merely the acetylation of the N-terminus of the hK2 prodrug contributed to its stability, an acetylated fluorescence-quenched peptide (ac-Y′GKAFRRLGK′; SEQ ID NO:18) was synthesized and compared its plasma stability with that of the non-acetylated peptide (Y′GKAFRRLGK′; SEQ ID NO:21). […] Analytical HPLC indicated the same result. […] The paradoxical stability of the hK2 prodrug (ac-GKAFRR-L12ADT; SEQ ID NO:41) compared to the peptide substrates may also be due to binding of the L12ADT moiety to plasma proteins that make it inaccessible to the plasma protease activity that is responsible for hydrolysis of unconjugated (and unbound) peptides.

[4] = molecular target: sarcoplasmic reticulum (SR) and endoplasmic reticulum (ER) Ca^2+-ATPase (SERCA) pump; conditions: read-out: apparent dissociation constant for TG from the SERCA pump; cited from earlier work
[5] = enzyme 1 μg/ml, substrate 500 μM, 1 = approximately 0.1% digestion in 1 hour

Abz-GKAFRRLY′: fluorescence quenched peptide substrate with the lead sequence GKAFRRL ([2Abz]GKAFRRL[Tyr(3-NO2)])
hydrolysis following incubation with Cathepsin B (in words) (Cathepsin B): No appreciable hydrolysis
Relative hydrolysis rate, Cathepsin B (Cathepsin B; [5]): 1
Relative hydrolysis rate, hK2 (hK2 [1]): 353
activity of Urokinase on the substrate (in words) (Urokinase): low activity
Relative hydrolysis rate, Urokinase (Urokinase; [5]): 17
Relative hydrolysis rate, Plasmin (Plasmin; [5]): 36
fold slower rate of hydrolysis by plasmin than by hK2 (Plasmin; fluorescence quenched peptide substrate): more than 10 fold
hydrolysis following incubation with Cathepsin D (in words) (Cathepsin D): No appreciable hydrolysis
Relative hydrolysis rate, Cathepsin D (Cathepsin D; [5]): 1

ac-GKAFRRLG: acetylated non-fluorescence quenched peptide (Ac-GKAFRRLG)
hydrolysis by hK2 (in words) (hK2 [2]): rapidly hydrolyzed by hK2

CC(=O)N[C@@H](Cc1ccc(O)c([N+](=O)[O-])c1)C(=O)NCC(=O)N[C@@H](CCCCN)C(=O)N[C@@H](C)C(=O)N[C@@H](Cc1ccccc1)C(=O)N[C@@H](CCCNC(=N)N)C(=O)N[C@@H](CCCNC(=N)N)C(=O)N[C@@H](CC(C)C)C(=O)NCC(=O)N[C@@H](CCCCNC(=O)c1ccccc1N)C(=O)O [ac-Y′GKAFRRLGK′] (Ac-[Tyr(3-NO2)]GKAFRRLGK(2Abz)-OH)
plasma hydrolysis compared with the non-acetylated peptide (in words) [3]: completely identical

C/C=C(/C)C(=O)O[C@H]1C(C)=C2[C@H]([C@@H]1OC(=O)CCCCCCC)[C@@](C)(OC(C)=O)C[C@H](OC(=O)CCC)[C@@]1(O)[C@H]2OC(=O)[C@@]1(C)O [TG, Thapsigargin]
Kd [4]: ≤ 2.2 pM
